The values below come from patent US20250066490A1 (PROFOUNDBIO US, published 2025).

Residue numbers refer to the chain shown, from its start.

Assay [1] addresses T1, cynomolgus CD70 recombinant protein (cynomolgus, UniProt A0A2K5WTU9 39-190).
T1 construct: also called cyno-antigen; cynomolgus CD70 protein
T1 sequence: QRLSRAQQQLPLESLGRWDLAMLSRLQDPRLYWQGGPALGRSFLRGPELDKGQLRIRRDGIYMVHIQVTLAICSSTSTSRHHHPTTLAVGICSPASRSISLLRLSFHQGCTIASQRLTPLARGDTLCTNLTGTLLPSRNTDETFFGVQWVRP
The assay is described as follows: ELISA, IgG titrated on coated cynomolgus CD70 recombinant protein (2 µg/ml), anti-human Fc-HRP, OD450. As to the method:
(§1) The binding specificity of the CD70 antibodies was tested by ELISA according to a standard protocol. Briefly, 96-well micro-plates were coated with 2 μg/ml of human or cynomolgus CD70 recombinant protein in PBS at 100 μl per well and incubated overnight at 4° C. The plates were washed twice with TBS+0.5% Tween20. 200 μL of blocking buffer (2% BSA in PBS) was added to each well, and the plates were incubated at 37° C. for 2 hours. The plates were washed using the wash buffer mentioned above. Serially diluted antibodies were added to the ELISA plates using 100 μl per well, and the plates were incubated for 1 hour at room temperature. Then plates were washed 3 times. HRP conjugated anti-human Fc antibody solution (Sigma, I18885-2ML, diluted with blocking buffer) was added to the plates using 100 μl per well. The plates were incubated at room temperature for 1 hour and then washed 3 times. Then the TMB solution was added to plates using 100 μl per well and the plates were placed at RT for 5-15 mins. Then the stop solution (2M H2SO4) was added using 50 μl per well. The absorbance was measured at A450 and A630.
(In general: An ELISA detects its analyte on a solid surface through an enzyme-linked reagent.)

The target in assay [2] is T2, CD70 ECD (antigen immobilized on the CM5 chip) (UniProt P32970 39-193).
T2 construct: extracellular domain; also called CD70 antigen
T2 sequence (looked up): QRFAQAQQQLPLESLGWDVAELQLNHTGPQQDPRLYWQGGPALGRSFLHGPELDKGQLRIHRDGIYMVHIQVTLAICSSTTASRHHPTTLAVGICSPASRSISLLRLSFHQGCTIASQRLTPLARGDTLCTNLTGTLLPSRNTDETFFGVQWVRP
Kind of assay: SPR (Biacore T200), CD70 ECD on CM5 chip, IgG as analyte. As to the method: (§2) The immobilization of antigen CD70 ECD was performed at 25° C. with HBS-EP as the running buffer. Sensor chip surface of flow cells 1, 4 were activated by freshly mixed 50 mmol/L N-Hydroxy succinimide (NHS) and 200 mmol/L 1-ethyl-3-(3-dimethylaminopropyl) carbodiimide hydrochloride (EDC) for 420s (10 μL/min). Afterwards, CD70 antigen diluted in 10 mmol/L NaAC (pH 4.5) was injected into flow cell 4 to achieve conjugation of the appropriate Response Unit, while flow cell 1 was set as a blank. After the amine coupling reaction, the remaining active coupling sites on chip surface were blocked by 420s injection of 1 mol/L ethanolamine hydrochloride.
(§3) The assay was performed at 25° C. and the running buffer was HBS-EP. Diluted antibodies were injected over the surface of flow cells 1 and 4 during the association phase, followed by injecting running buffer as the dissociation phase. All the data were processed using Biacore T200 Evaluation software version 3.1. Flow cell 1 and a blank injection of buffer in each cycle were used as a double reference for Response Units subtraction. Kinetic data of the interaction between the antibodies and CD70 antigen were obtained through affinity measurement.

Assay [3] concerns the target T3, human CD70 expressed on the cell surface of tumor cell lines (human, UniProt P32970 1-193).
T3 construct: whole, on cells
T3 sequence (looked up): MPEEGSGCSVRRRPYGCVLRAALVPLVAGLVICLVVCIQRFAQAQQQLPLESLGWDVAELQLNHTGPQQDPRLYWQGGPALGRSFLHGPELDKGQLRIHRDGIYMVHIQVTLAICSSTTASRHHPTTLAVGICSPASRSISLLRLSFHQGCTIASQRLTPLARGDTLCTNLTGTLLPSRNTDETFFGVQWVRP
The assay is described as follows: flow cytometry on U251 cells. As to the method:
(§4) The lead antibodies were tested for binding to renal carcinoma cells and glioblastoma cells expressing CD70 on the cell surface by flow cytometry. […] U251 cells were cultured with MEM medium containing of 10% FBS and 1% NEAA+1 mM sodium pyruvate. DBTRG-05MG cells were cultured with DMEM medium (Gibco, Cat #C11995500BT) containing of 10% FBS. Each of the lead antibodies and the controls were incubated for 30 mins with the different cell lines (3×10⁵ cells per well) in 0.2 ml FACS buffer (1×PBS with 0.1% BSA) at 4° C. Then, the cells were pelleted, washed, and incubated at 4° C. for 30 mins with 100 μl of 1:200 diluted PE-conjugated anti human Fc (Abcam, Ab98596) in FACS buffer. The cells were pelleted again, washed with PBS, resuspended in FACS buffer and analyzed by flow cytometer (Beckman, CytoFLEX).
(§5) Antibodies 2H8 and 2D2 had slightly higher binding ability to the cell lines than that of antibody 69A7.
For orientation: A flow cytometer gives signals particle by particle.

Assay [4] has as its target T3, human CD70 expressed on the cell …. Kind of assay: flow cytometry on 786-O cells, PE anti-human Fc, MFI; same fit as Table 6, which prints it in nM. The procedure:
as §4, §5

Assay [5] shares this target. Kind of assay: cell-based or functional assay.
For assay [6] the target is unchanged. The assay is described as follows: flow cytometry on Caki-1 cells. The procedure: as §4, §5
Assay [7] shares this target. Kind of assay: flow cytometry on DBTRG-05MG cells, PE anti-human Fc, MFI; same fit as Table 6, which prints it in nM. The procedure: as §4, §5
The target of assay [8] is T4, human CD70 recombinant protein (human, UniProt P32970 39-193, limits assumed).
T4 construct: May be the same reagent as ACRO CDL-H5246; also called CD70 protein
T4 sequence (looked up): T2 sequence (looked up)
Kind of assay: ELISA, IgG titrated on coated human CD70 recombinant protein (2 µg/ml), anti-human Fc-HRP, OD450. The procedure: as §1

The target of assay [9] is T3, human CD70 expressed on the cell …. The assay is described as follows: flow cytometry on U251 cells, PE anti-human Fc, MFI; same fit as Table 6, which prints it in nM. The procedure: as §4, §5
The target is the same in assay [10]. The assay is described as follows: flow cytometry on DBTRG-05MG cells. As to the method:
as §4, §5

Assay [11] has the same target. Kind of assay: flow cytometry on 786-O cells. As to the method:
as §4, §5

Assay [12] shares this target. Kind of assay: flow cytometry on Caki-1 cells, PE anti-human Fc, MFI; same fit as Table 6, which prints it in nM. The procedure: as §4, §5
Assay [13] concerns the target T5, human CD70 extra-cellular domain (ECD) linked to His tag (human, UniProt P32970 39-193).
T5 construct: extracellular domain; also called Hu CD70; HU CD70; not shown: His tag
T5 sequence (looked up): T2 sequence (looked up)
The assay is described as follows: BLI (Octet RED), antibody on anti-human Fc tips, CD70 ECD-His at 100 nM. As to the method:
Recombinant proteins consisting of human, rat, or mouse CD70 extra-cellular domain (ECD) linked to His tag was purchased (from ACRO systems). 69A7 and 2E7 (20 nM) were immobilized on anti-human IgG Fc biosensor tips (ForteBio). Binding assays using one concentration (100 nM) of recombinant protein in solution were performed using Octet RED (ForteBio). Association time was set at 180s and dissociation time was set at 300s. Binding affinity was calculated using ForteBio Data Acquisition 6.3 software. Affinity was derived by fitting the kinetic data to a 1:1 Langmuir binding model utilizing global fitting algorithms. […] 2E7 had no cross-reactivity to rat or mouse CD70 (Table 10).
On the technique in general: Biolayer interferometry detects binding as a change in optical thickness at a sensor tip.

Assay [14] deals with T2, CD70 ECD (antigen immobilized on the …). Kind of assay: SPR (Biacore T200), CD70 ECD on CM5 chip; lower end tied to 2D2 by the KD values of Table 8. As to the method: as §2, §3

B1: 1F6 (Vorsetuzumab), reference antibody, full IgG (antibody, V domains shown)
VH: QVQLVQSGAEVKKPGASVKVSCKASGYTFTNYGMNWVRQAPGQGLKWMGWINTYTGEPTYADAFKGRVTMTRDTSISTAYMELSRLRSDDTAVYYCARDYGDYGMDYWGQGTTVTVSS
VL: DIVMTQSPDSLAVSLGERATINCRASKSVSTSGYSFMHWYQQKPGQPPKLLIYLASNLESGVPDRFSGSGSGTDFTLTISSLQAEDVAVYYCQHSREVPWTFGQGTKVEIK
notes: also called h1F6; h1 F6
The term EC50 denotes the concentration that produces a half-maximal response. Broadly, the Kd is the equilibrium constant for the complex coming apart. For orientation: koff means a measure of how fast the partners let go of each other. The low end stands for slow dissociation, the high end for fast dissociation. By kon is commonly meant a measure of how fast the partners come together. A lower kon goes with slow association. As to B1, in assay [1], the concentration for a half-maximal effect (EC50) amounted to 0.00284 µg/mL. In assay [2], the dissociation constant (Kd) was determined as 52.3 nM, the koff was determined as 0.00236 s⁻¹ and the on-rate (kon) is 45100 M⁻¹ s⁻¹.

B2: 69A7 (parent antibody), full IgG (antibody, V domains shown)
VH: QVQLQESGPGLVKPSETLSLTCTVSGGSVSSDYYYWSWIRQPPGKGLEWLGYIYYSGSTNYNPSLKSRVTISVDTSKNQFSLKLRSVTTADTAVYYCARGDGDYGGNCFDYWGQGTLVTVSS
VL: EIVLTQSPATLSLSPGERATLSCRASQSVSSYLAWYQQKPGQAPRLLIFDASNRATGIPARFSGSGSGTDFTLTISSLEPEDFAVYYCQQRSNWPLTFGGGTKVEIK
notes: also called parent antibody 69A7
Regarding B2, the concentration for a half-maximal effect (EC50) was 8.11 nM in assay [3]; 0.973 µg/mL in assay [4]; 9.89 nM in assay [6]; 1.7 µg/mL in assay [7]; 0.278 µg/mL in [8]; 1.22 µg/mL in assay [9]. Also, the EC50 in assay [1] is 0.0104 µg/mL; in assay [10] it was 11.3 nM; in assay [11], 6.49 nM; in assay [12], 1.48 µg/mL. The “Internalization rate (%) on 786-O” value in assay [5] came out at 64%. Moreover, the “Internalization rate (%) on Caki-1” value in assay [5] came to 27%. Further, the results for the Kd in assay [13] and in assay [2] were 2.89 nM and 313 nM, respectively. Besides, the dissociation rate constant (koff) in assay [13] stood at 0.000978 s⁻¹; in assay [2], 0.00198 s⁻¹. Also, the on-rate constant (kon) amounted to 339000 M⁻¹ s⁻¹ in assay [13] and 6330 M⁻¹ s⁻¹ in [2].

B3: 2A4, full IgG (antibody, V domains shown)
VH: B2 VH with C108V, D110P
VL: B2 VL
As to B3, the EC50 stood at 21.3 µg/mL in assay [4]; 284 nM in assay [6]; 9.1 µg/mL in [8]; 494 nM in [10]; 142 nM in [11]. In addition, the “Internalization rate (%) on 786-O” value in assay [5] turned out to be 49%. Moreover, the “Internalization rate (%) on Caki-1” value in assay [5] was determined as 20%.

B4: 1H8, full IgG (antibody, V domains shown)
VH: B2 VH with Y104F, G105M, N107V
VL: B2 VL
B4: the EC50 in [3] was determined as 7.99 nM; in assay [4] it was 0.767 µg/mL; in [6], 5.65 nM; in assay [7], 1.44 µg/mL; in [8] it was 0.0595 µg/mL; in assay [9] it was 1.2 µg/mL. The EC50 in assay [1] was 0.00326 µg/mL; in assay [10] it was 9.6 nM; in assay [11], 5.12 nM; in assay [12], 0.847 µg/mL. In assay [5], the “Internalization rate (%) on 786-O” value amounted to 76%. The “Internalization rate (%) on Caki-1” value in assay [5] came out at 62%. Besides, in [2], the affinity, expressed as Kd, was 43.7 nM. In assay [2], the off-rate (koff) was found to be 0.00112 s⁻¹. This molecule also displayed an association rate constant (kon) in [2] of 25600 M⁻¹ s⁻¹.

B5: 2D2, full IgG (antibody, V domains shown)
VH: B2 VH
VL: B2 VL with S92L, N93K, W94F
B5: the 50% effective concentration (EC50) in assay [3] came out at 7.38 nM; in assay [4], 0.842 µg/mL; in [6] it was 5.98 nM; in assay [7], 2.06 µg/mL; in [8], 0.087 µg/mL; in assay [9], 1.11 µg/mL. For the same molecule, the EC50 is 0.00424 µg/mL in assay [1], 13.7 nM in assay [10], 5.62 nM in assay [11] and 0.896 µg/mL in assay [12]. Further, the “fold improved affinity against parent antibody 69A7” value in assay [14] lay in the range of 3 to 8 fold. Further, the “Internalization rate (%) on 786-O” value in [5] was 76%. For the same molecule, in [5], the “Internalization rate (%) on Caki-1” value amounted to 53%. In [2], this molecule had a dissociation constant Kd of 89.6 nM. This molecule yielded an off-rate constant (koff) in assay [2] of 0.00105 s⁻¹. In assay [2], this molecule showed a kon of 11700 M⁻¹ s⁻¹.
